Measured values taken from paper PMC5387307, “Diversification of the kinetic properties of yeast NADP‐glutamate‐dehydrogenase isozymes proceeds independently of their evolutionary origin” (MicrobiologyOpen, 2016).
Like-named read-outs stand apart in the source and are kept apart here. Values belong to the molecule of their own block, whether it stands above or below them.

How the values were obtained:
LkGdh1 = tested on: T1, LkGdh1; test: NADPH absorbance at […] nm, reductive amination; format: biochemical, Lachancea kluyveri; conditions: 100 mmol/L Tris pH 7.5, 30°C
T1 construct: gene GDH1; full-length ORF in pET-28a(+), His-tagged, expressed in E. coli BL21, Ni-NTA purified; monomer 54 kD apparent; glutamate IC50: native enzyme in WT extract

purified protein [1] = substrate: N; test: purified protein; conditions: 8 mmol/L α-KG, 250 μmol/L NADPH, 100 mmol/L Tris pH 7.5, 30°C
purified protein [2] = substrate: O=C(O)CCC(=O)C(=O)O; test: purified protein; format: biochemical, Saccharomyces cerevisiae; conditions: 250 μmol/L NADPH, 100 mmol/L ammonium chloride, 100 mmol/L Tris pH 7.5, 30°C
purified protein [3] = substrate: NC(=O)C1=CN([C@@H]2O[C@H](COP(=O)(O)OP(=O)(O)OC[C@H]3O[C@@H](n4cnc5c(N)ncnc54)[C@H](OP(=O)(O)O)[C@@H]3O)[C@@H](O)[C@H]2O)C=CC1; test: purified protein; format: biochemical, Saccharomyces cerevisiae; conditions: 8 mmol/L α-KG, 100 mmol/L ammonium chloride, 100 mmol/L Tris pH 7.5, 30°C

Km (LkGdh1; 8 mmol/L α-KG, 250 μmol/L NADPH, read-out: pH 7.5 / K m-NH4+): 7400 µM
Molecule: N [NH4+]

Km (LkGdh1; 250 μmol/L NADPH, 100 mmol/L ammonium chloride, read-out: pH 7.5 / K m-α-KG): 460 µM
Molecule: O=C(O)CCC(=O)C(=O)O [α-KG]

Km (LkGdh1; 8 mmol/L α-KG, 100 mmol/L ammonium chloride, read-out: pH 7.5 / K m-NADPH): 46 µM
Molecule: NC(=O)C1=CN([C@@H]2O[C@H](COP(=O)(O)OP(=O)(O)OC[C@H]3O[C@@H](n4cnc5c(N)ncnc54)[C@H](OP(=O)(O)O)[C@@H]3O)[C@@H](O)[C@H]2O)C=CC1 [NADPH]

B1: ScGdh3 (Saccharomyces cerevisiae S288C) (protein)
chain: MTSEPEFQQAYDEIVSSVEDSKIFEKFPQYKKVLPIVSVPERIIQFRVTWENDNGEQEVAQGYRVQFNSAKGPYKGGLRFHPSVNLSILKFLGFEQIFKNALTGLDMGGGKGGLCVDLKGKSDNEIRRICYAFMRELSRHIGKDTDVPAGDIGVGGREIGYLFGAYRSYKNSWEGVLTGKGLNWGGSLIRPEATGFGLVYYTQAMIDYATNGKESFEGKRVTISGSGNVAQYAALKVIELGGIVVSLSDSKGCIISETGITSEQIHDIASAKIRFKSLEEIVDEYSTFSESKMKYVAGARPWTHVSNVDIALPCATQNEVSGDEAKALVASGVKFVAEGANMGSTPEAISVFETARSTATNAKDAVWFGPPKAANLGGVAVSGLEMAQNSQKVTWTAERVDQELKKIMINCFNDCIQAAQEYSTEKNTNTLPSLVKGANIASFVMVADAMLDQGDVF
notes: full-length ORF in pET-28a(+), His-tagged, expressed in E. coli BL21, Ni-NTA purified; monomer 55 kD apparent; glutamate IC50: native enzyme in Scgdh1 deletion strain extract
Km (purified protein [1]): 6900 µM
kcat (purified protein [1]): 14 s⁻¹
Km (purified protein [2]): 400 µM
kcat (purified protein [2]): 14 s⁻¹
Km (purified protein [3]): 42 µM
kcat (purified protein [3]): 14 s⁻¹

B2: ScGdh1 (Saccharomyces cerevisiae S288C) (protein)
chain: SEPEFQQAYEEVVSSLEDSTLFEQHPEYRKVLPIVSVPERIIQFRVTWENDKGEQEVAQGYRVQYNSAKGPYKGGLRFHPSVNLSILKFLGFEQIFKNSLTGLDMGGGKGGLCVDLKGRSNNEIRRICYAFMRELSRHIGQDTDVPAGDIGVGGREIGYLFGAYRSYKNSWEGVLTGKGLNWGGSLIRPEATGYGLVYYTQAMIDYATNGKESFEGKRVTISGSGNVAQYAALKVIELGGTVVSLSDSKGCIISETGITSEQVADISSAKVNFKSLEQIVNEYSTFSENKVQYIAGARPWTHVQKVDIALPCATQNEVSGEEAKALVAQGVKFIAEGSNMGSTPEAIAVFETARSTATGPSEAVWYGPPKAANLGGVAVSGLEMAQNSQRITWTSERVDQELKRIMINCFNECIDYAKKYTKDGKVLPSLVKGANIASFIKVSDAMFDQGDVF
notes: full-length ORF in pET-28a(+), His-tagged, expressed in E. coli BL21, Ni-NTA purified; monomer 53 kD apparent
Km (purified protein [1]): 8600 µM
kcat (purified protein [1]): 13 s⁻¹
Km (purified protein [2]): 370 µM
kcat (purified protein [2]): 13 s⁻¹
Km (purified protein [3]): 45 µM
kcat (purified protein [3]): 13 s⁻¹
